The target in this test is metastin receptor (OT7T175) stably expressed on CHO cells. Kind of test: cell-based or functional assay.

“Compound No. 972: dimethylaminoethylureido-D-Tyr-Hyp-Asn-Thr-Phe-AzaGly-Leu-Arg(Me)-Trp-NH2 (peptide)”: the Specific Activity: EC50 of the test compound based on EC50 of Metastin (45-54); agonist activity by change in intracellular calcium ion level (Fluo-4 NW, FLIPR) in receptor-expressing CHO cells was determined as 2.2.

As for “Compound No. 973: iso-butylureido-D-Tyr-Hyp-Asn-Thr-Phe-AzaGly-Leu-Arg(Me)-Trp-NH2 (peptide)”, the Specific Activity: EC50 of the test compound based on EC50 of Metastin (45-54); agonist activity by change in intracellular calcium ion level (Fluo-4 NW, FLIPR) in receptor-expressing CHO cells is 0.4.
